From USRE48267E1, “Variants of C-type natriuretic peptide” (priority 2009, dated 2020) come the findings set out here.

The target in this series is Recombinant human NEP (Homo sapiens, UniProt P08473). The series can be described thus: in vitro NEP cleavage assay (disappearance of non-cleaved CNP variant). On the procedure: To determine the effects of amino acid substitutions, amino acid extensions, backbone modifications, side chain modifications and PEGylation on the susceptibility of CNP variants to neutral endopeptidase (NEP) cleavage, peptide cleavage assays were carried out using an in vitro assay that monitored disappearance of the non-cleaved CNP variant.
Chain of Recombinant human NEP (P08473 whole entry): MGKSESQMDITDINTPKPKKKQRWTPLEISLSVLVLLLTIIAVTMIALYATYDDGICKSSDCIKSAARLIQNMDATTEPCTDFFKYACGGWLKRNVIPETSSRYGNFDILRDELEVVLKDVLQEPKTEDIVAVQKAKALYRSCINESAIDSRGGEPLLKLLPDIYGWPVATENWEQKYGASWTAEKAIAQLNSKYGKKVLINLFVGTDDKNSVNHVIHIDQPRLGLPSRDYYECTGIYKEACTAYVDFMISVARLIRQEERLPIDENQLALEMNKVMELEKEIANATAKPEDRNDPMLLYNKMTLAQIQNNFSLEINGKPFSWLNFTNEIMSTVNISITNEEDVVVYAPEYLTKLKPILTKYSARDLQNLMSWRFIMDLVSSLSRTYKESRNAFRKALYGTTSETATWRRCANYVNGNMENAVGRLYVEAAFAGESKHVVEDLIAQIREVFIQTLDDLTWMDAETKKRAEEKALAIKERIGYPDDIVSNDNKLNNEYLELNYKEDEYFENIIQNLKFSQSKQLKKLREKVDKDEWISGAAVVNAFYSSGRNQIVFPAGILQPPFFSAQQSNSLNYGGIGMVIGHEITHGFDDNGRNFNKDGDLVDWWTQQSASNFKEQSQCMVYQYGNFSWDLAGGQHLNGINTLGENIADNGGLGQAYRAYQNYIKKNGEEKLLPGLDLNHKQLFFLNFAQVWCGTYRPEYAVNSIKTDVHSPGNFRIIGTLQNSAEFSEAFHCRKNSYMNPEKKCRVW
Recombinant human NEP (1 ug/mL final concentration) was added to 100 uM CNP variant diluted in 0.1 M Tris, pH 7. The reaction mixture was incubated at 37° C. for various periods of time, and the reaction was quenched with EDTA (10 mM final) followed by heat denaturation. The reaction mixture was reduced and then the reaction products were analyzed using HPLC and mass spectroscopy. The half-life of the CNP variant was calculated based on the disappearance of intact CNP variant over time.

Where a SMILES comes first, the peptide text is derived from it. Bridges are numbered along the chain shown (N, C = ends). Where no end group is shown, it is not given here. [ ]: non-standard residue; d: D form. The star is where a group is joined. CH3O(CH2CH2O)11CH2CH2CO = COCCOCCOCCOCCOCCOCCOCCOCCOCCOCCOCCOCCC(=O)*; PEG2K = PEG2K (polydispersed); Tle = CC(C)(C)[C@H](N)C(=O)O; PEG1K = polydispersed PEG1K

As to `CC[C@H](C)[C@@H]1NC(=O)[C@H](CCCNC(=N)N)NC(=O)[C@H](CC(=O)O)NC(=O)[C@H](CC(C)C)NC(=O)[C@H](CCCCN)NC(=O)[C@H](CC(C)C)NC(=O)[C@H](C(C)(C)C)NC(=O)[C@H](Cc2ccccc2)NC(=O)[C@@H](NC(=O)CNC(=O)[C@H](CCCCN)NC(=O)[C@H](CO)NC(=O)[C@H](CC(C)C)NC(=O)CN)CSSC[C@@H](C(=O)O)NC(=O)CNC(=O)[C@H](CC(C)C)NC(=O)CNC(=O)[C@H](CO)NC(=O)[C@H](CCSC)NC(=O)[C@H](CO)NC(=O)CNC1=O` [Analog F] (H-GLSKGCF[Tle]LKLDRIGSMSGLGC-OH; disulfide 6-22), the “resistance to cleavage at the Cys6-Phe7 bond relative to wtCNP22” value is “resistance or improved resistance”.

As for “PEG1K-GANRR-CNP22(K4R): GANRR-CNP22, K4R (SEQ ID NO: 36) conjugated at the N-terminus to PEG1K (PEG1K-GANRRGLSRGCFGLKLDRIGSMSGLGC; not fully specified (bridges); ends and bridges not checked)”, the “NEP Cleavage (t1/2, min)” value (pH 7) is given as above 160 min.

As for `CC[C@H](C)[C@@H]1NC(=O)[C@H](CCCNC(=N)N)NC(=O)[C@H](CC(=O)O)NC(=O)[C@H](CC(C)C)NC(=O)[C@H](CCCCN)NC(=O)[C@H](CC(C)C)NC(=O)CNC(=O)[C@H](Cc2ccccc2)NC(=O)[C@@H](NC(=O)CNC(=O)[C@H](CCCNC(=N)N)NC(=O)[C@H](CO)NC(=O)[C@H](CC(C)C)NC(=O)CNC(=O)[C@H](CCCNC(=N)N)NC(=O)[C@@H]2CCCN2C(=O)[C@H](CC(N)=O)NC(=O)[C@H](C)NC(=O)CNC(=O)CCOCCOCCOCCOCCOCCOCCOCCOCCOCCOCCOCCOC)CSSC[C@@H](C(=O)O)NC(=O)CNC(=O)[C@H](CC(C)C)NC(=O)CNC(=O)[C@H](CO)NC(=O)[C@H](CCSC)NC(=O)[C@H](CO)NC(=O)CNC1=O` [PEO12-GANPR-CNP22(K4R)] ({CH3O(CH2CH2O)11CH2CH2CO}-GANPRGLSRGCFGLKLDRIGSMSGLGC-OH; disulfide 11-27; C-terminus assumed), the “resistance to NEP cleavage (in words)” value was “same half-life as wtCNP22”.

Take `CC[C@H](C)[C@@H]1NC(=O)[C@H](CCCNC(=N)N)NC(=O)[C@H](CC(=O)O)NC(=O)[C@H](CC(C)C)NC(=O)[C@H](CCCCN)NC(=O)[C@H](CC(C)C)NC(=O)CNC(=O)[C@H](Cc2ccccc2)NC(=O)[C@@H](NC(=O)CNC(=O)[C@H](CCCCN)NC(=O)[C@H](CO)NC(=O)[C@H](CC(C)C)NC(=O)CNC(=O)CCOCCOCCOCCOCCOCCOCCOCCOCCOCCOCCOCCOCCOCCOCCOCCOCCOCCOCCOCCOCCOCCOCCOCCOC)CSSC[C@@H](C(=O)O)NC(=O)CNC(=O)[C@H](CC(C)C)NC(=O)CNC(=O)[C@H](CO)NC(=O)[C@H](CCSC)NC(=O)[C@H](CO)NC(=O)CNC1=O` [PEO24-CNP22]: the “resistance to NEP cleavage (in words)” value is “resistant to NEP degradation over the assay period of 160 minutes”. Where the note is “100 uM peptide, 1 ug/mL NEP, 0.1 M Tris pH 7, 37° C., adjusted t1/2, CNP22 normalized to 80 min”, the “NEP Cleavage (t1/2, min)” value is reported as >>160 min.

Turning to `CC[C@H](C)[C@@H]1NC(=O)[C@H](CCCNC(=N)N)NC(=O)[C@H](CC(=O)O)NC(=O)[C@H](CC(C)C)NC(=O)[C@H](CCCCN)NC(=O)[C@H](CC(C)C)NC(=O)CNC(=O)[C@H](Cc2ccccc2)NC(=O)[C@@H](NC(=O)CNC(=O)[C@H](CCCNC(=N)N)NC(=O)[C@H](CO)NC(=O)[C@H](CC(C)C)NC(=O)CNC(=O)[C@@H](N)CCCNC(=N)N)CSSC[C@@H](C(=O)O)NC(=O)CNC(=O)[C@H](CC(C)C)NC(=O)CNC(=O)[C@H](CO)NC(=O)[C@H](CCSC)NC(=O)[C@H](CO)NC(=O)CNC1=O` [Analog AZ] (H-RGLSRGCFGLKLDRIGSMSGLGC-OH; disulfide 7-23), the “resistance to NEP cleavage (in words)” value is “most resistant to NEP degradation”.

Turning to “DLRVDTKSRAAWARLLQEHPNARKYKGANKKGLSKGCFGLKLDRIGSMSGLGC (disulfide 37-53) [Analog BM, reference compound]”, the “resistance to NEP cleavage (in words)” value is “resistant to NEP degradation”.

As for “PEG2K-CNP22: CNP22 conjugated at the N-terminus to polydispersed PEG2K”, for the setting “pH 7”, the “NEP Cleavage (t1/2, min)” value was >>160 min.

On to “PEG2K-CNP22(K4G): CNP22 having a K4G substitution, N-terminal PEGylated with PEG2K (PEG2K-GLSGGCFGLKLDRIGSMSGLGC; not fully specified (bridges); ends and bridges not checked; UniProt P23582 105-126, looked up, variant K4G)”, for which the “resistance to NEP cleavage (in words)” value is listed as “only slightly more resistant to NEP cleavage than CNP22”.
